The results in this text go back to patent US20250109203A1.

This test deals with human γδ TCR (Vγ9Vδ2) on human Vδ2+ γδ T cells (human) (UniProt A0JD36). In words: flow cytometry on expanded human Vδ2+ γδ T cells, nonlinear fit.

B1: hu1D7v25 VHH-hIgG1 Fc-NNT (monomeric) (VHH)
VHH: EVQLLESGGGEVQPGGSLRLSCVASRGKISQYRMGWYRQAPGKGLEWVAHISNTGDAAEYVDSVKGRFTISRDSTKNAVYLQMSSLRAEDTAVYKCASVEDILAWGQGTLVTVKP
What is called Kd is the equilibrium constant for the complex coming apart. A higher Kd goes with a looser complex. B1 showed a dissociation constant (Kd) of 866000 nM.

B2: hu1D7v75 VHH-hIgG1 Fc-NNT (monomeric) (VHH)
VHH: EVQLLESGGGEVQPGGSLRLSCVASRGKISQYRMGWYRQAPGKERELVAHISNTGDAAEYVGSVKDRFTISRDSTKNALYLQMSSLRAEDTAVYKCNSVEDILAWGQGTLVTVRP
Molecule B2 showed a Kd of 118 nM.

B3: hu1D7v30 VHH-hIgG1 Fc-NNT (monomeric) (VHH)
VHH: EVQLLESGGGEVQPGGSLRLSCVASRGKISQYRMGWYRQAPGKELEWVAHISNTGDAAYYVDSVKGRFTISRDSTKNAVYLQMSSLRAEDTAVYKCNSVEDILAWGQGTLVTVKP
The molecule B3 gave a dissociation constant (Kd) of 38.4 nM.

B4: hu1D7v32 VHH-hIgG1 Fc-NNT (monomeric) (VHH)
VHH: EVQLLESGGGEVQPGGSLRLSCVASRGKISQYRMGWYRQAPGKELEWVAHISNTGDAAEYVESVKGRFTISRDSTKNAVYLQMSSLRAEDTAVYKCNSVEDILAWGQGTLVTVKP
Take B4: the Kd is 35.7 nM.

B5: hu1D7v78 VHH-hIgG1 Fc-NNT (monomeric) (VHH)
VHH: EVQLLESGGGEVQPGGSLRLSCVASRGKISQYRMGWYRQAPGKERELVAHISNTGDAAEYVDSVKDRFTISRDSTKNALYLQMSSLRAEDTAVYKCNAVEDILAWGQGTLVTVRP
Consider B5, for which the Kd is 481 nM.

B6: hu1D7v76 VHH-hIgG1 Fc-NNT (monomeric) (VHH)
VHH: EVQLLESGGGEVQPGGSLRLSCVASRGKISQYRMGWYRQAPGKERELVAHISNTGDAAEYVVSVKDRFTISRDSTKNALYLQMSSLRAEDTAVYKCNSVEDILAWGQGTLVTVRP
Regarding B6, the dissociation constant Kd was determined as 125 nM.

B7: hu1D7v61 VHH-hIgG1 Fc-NNT (monomeric) (VHH)
VHH: EVQLLESGGGEVQPGGSLRLSCVASRGKISQYRMGWYRQAPGKERELVAHISNTGDAAEYVDSVKDRFTISRDSTKNALYLQMSSLRAEDTAVYKCNTVEDILAWGQGTLVTVRP
Molecule B7 registered a Kd of 41.3 nM.

B8: hu1D7v67 VHH-hIgG1 Fc-NNT (monomeric) (VHH)
VHH: EVQLLESGGGEVQPGGSLRLSCVASRGKISQYRMGWYRQAPGKERELVAHISNTGDAAEYVDSVKDRFTISRDSTKNALYLQMSSLRAEDTAVYKCQSVEDILAWGQGTLVTVRP
For B8, the Kd worked out at 1740 nM.

B9: hu1D7v66 VHH-hIgG1 Fc-NNT (monomeric) (VHH)
VHH: EVQLLESGGGEVQPGGSLRLSCVASRGKISQYRMGWYRQAPGKERELVAHISNTGDAAEYVDTVKDRFTISRDSTKNALYLQMSSLRAEDTAVYKCNSVEDILAWGQGTLVTVRP
On to B9, for which the Kd was determined as 93.3 nM.

B10: hu1D7v36 VHH-hIgG1 Fc-NNT (monomeric) (VHH)
VHH: EVQLLESGGGEVQPGGSLRLSCVASRGKISQYRMGWYRQAPGKELEWVAHISNTGDAAEYVDSVKGRFTISRDSTKNAVYLQMSSLRAEDTAVYYCNSVEDILAWGQGTLVTVKP
For B10, the dissociation constant Kd was found to be 1500 nM.

B11: hu1D7v35 VHH-hIgG1 Fc-NNT (monomeric) (VHH)
VHH: EVQLLESGGGEVQPGGSLRLSCVASRGKISQYRMGWYRQAPGKELEWVAHISNTGDAAEYVDSVKGRFTISRDSTKNALYLQMSSLRAEDTAVYKCNSVEDILAWGQGTLVTVKP
In turn, B11 yielded a Kd of 8.4 nM.

B12: hu1D7v79 VHH-hIgG1 Fc-NNT (monomeric) (VHH)
VHH: EVQLLESGGGEVQPGGSLRLSCVASRGKISQYRMGWYRQAPGKERELVAHISNTGDAAEYVDSVKDRFTISRDSTKNALYLQMSSLRAEDTAVYKCNLVEDILAWGQGTLVTVRP
Take B12: the dissociation constant Kd came to 497 nM.

B13: hu1D7v34 VHH-hIgG1 Fc-NNT (monomeric) (VHH)
VHH: EVQLLESGGGEVQPGGSLRLSCVASRGKISQYRMGWYRQAPGKELEWVAHISNTGDAAEYVDSVKGRFTISRDNAKNAVYLQMSSLRAEDTAVYKCNSVEDILAWGQGTLVTVKP
Regarding B13, the equilibrium dissociation constant (Kd) amounted to 11.7 nM.

B14: hu1D7v29 VHH-hIgG1 Fc-NNT (monomeric) (VHH)
VHH: EVQLLESGGGEVQPGGSLRLSCVASRGKISSYRMGWYRQAPGKELEWVAHISNTGDAAEYVDSVKGRFTISRDSTKNAVYLQMSSLRAEDTAVYKCNSVEDILAWGQGTLVTVKP
The molecule B14 came in with an equilibrium dissociation constant (Kd) of 7230 nM.

B15: hu1D7v4 VHH-hIgG1 Fc-NNT (monomeric) (VHH)
VHH: EVQLLESGGGEVQPGGSLRLSCVASRFKISQYRMGWYRQAPGKGLEWVAHISNTGDAAEYVDSVKGRFTISRDSTKNAVYLQMSSLRAEDTAVYKCNSVEDILAWGQGTLVTVKP
B15 came in with a Kd of 8860 nM.

B16: hu1D7v26 VHH-hIgG1 Fc-NNT (monomeric) (VHH)
VHH: EVQLLESGGGEVQPGGSLRLSCVASRGKISQYRMGWYRQAPGKGLEWVAHISNTGDAAEYVDSVKGRFTISRDSTKNAVYLQMSSLRAEDTAVYYCNSVEDILAWGQGTLVTVKP
Consider B16, for which the Kd was 29 nM.

B17: hu1D7v31 VHH-hIgG1 Fc-NNT (monomeric) (VHH)
VHH: EVQLLESGGGEVQPGGSLRLSCVASRGKISQYRMGWYRQAPGKELEWVAHISNTGDAAEYVAPVKGRFTISRDSTKNAVYLQMSSLRAEDTAVYKCNSVEDILAWGQGTLVTVKP
With B17, the Kd was 16.7 nM.

B18: hu1D7v73 VHH-hIgG1 Fc-NNT (monomeric) (VHH)
VHH: EVQLLESGGGEVQPGGSLRLSCVASRGKISQYRMGWYRQAPGKERELVAHISNTGDAAEYVDIVKDRFTISRDSTKNALYLQMSSLRAEDTAVYKCNSVEDILAWGQGTLVTVRP
Regarding B18, the Kd is 180 nM.

B19: hu1D7v58 VHH-hIgG1 Fc-NNT (monomeric) (VHH)
VHH: EVQLLESGGGEVQPGGSLRLSCVASRGKISQYRMGWYRQAPGKERELVAHISNTGDAAEYVDSVKDRFTISRDSTKNALYLQMSSLRAEDTAVYKCNSVEDILAWGQGTLVTVRP
Molecule B19 gave a dissociation constant Kd of 8.07 nM.

B20: hu1D7v57 VHH-hIgG1 Fc-NNT (monomeric) (VHH)
VHH: EVQLLESGGGEVQPGGSLRLSCVASRGKISQYRMGWYRQAPGKERELVAHISNTGDAAEYVDSVKGRFTISRDSTKNALYLQMSSLRAEDTAVYKCNSVEDILAWGQGTLVTVRP
For B20, the equilibrium dissociation constant (Kd) stood at 10.5 nM.

B21: hu1D7v59 VHH-hIgG1 Fc-NNT (monomeric) (VHH)
VHH: EVQLLESGGGEVQPGGSLRLSCVASRGKISQYRMGWYRQAPGKERELVAHISNTGDAAEYVAPVKDRFTISRDSTKNALYLQMSSLRAEDTAVYKCNSVEDILAWGQGTLVTVRP
Molecule B21 yielded a Kd of 23.8 nM.

B22: hu1D7v74 VHH-hIgG1 Fc-NNT (monomeric) (VHH)
VHH: EVQLLESGGGEVQPGGSLRLSCVASRGKISQYRMGWYRQAPGKERELVAHISNTGDAAEYVASVKDRFTISRDSTKNALYLQMSSLRAEDTAVYKCNSVEDILAWGQGTLVTVRP
As for B22, the dissociation constant Kd was determined as 60.4 nM.

B23: hu1D7v39 VHH-hIgG1 Fc-NNT (monomeric) (VHH)
VHH: EVQLLESGGGEVQPGGSLRLSCVASRGKISQYRMGWYRQAPGKELEWVAHISNTGDAAEYVDSVKGRFTISRDSTKNAVYLQMSSLRAEDTAVYKCNSVEDILAWGQGTLVTVRP
In turn, B23 had a Kd of 7.99 nM.

B24: hu1D7v28 VHH-hIgG1 Fc-NNT (monomeric) (VHH)
VHH: EVQLLESGGGEVQPGGSLRLSCAASRGKISQYRMGWYRQAPGKELEWVAHISNTGDAAEYVDSVKGRFTISRDSTKNAVYLQMSSLRAEDTAVYKCNSVEDILAWGQGTLVTVKP
Consider B24, for which the Kd was determined as 15.7 nM.

B25: hu1D7v37 VHH-hIgG1 Fc-NNT (monomeric) (VHH)
VHH: EVQLLESGGGEVQPGGSLRLSCVASRGKISQYRMGWYRQAPGKELEWVAHISNTGDAAEYVDSVKGRFTISRDSTKNAVYLQMSSLRAEDTAVYKCNTVEDILAWGQGTLVTVKP
B25 registered a Kd of 17.4 nM.

B26: hu1D7v69 VHH-hIgG1 Fc-NNT (monomeric) (VHH)
VHH: EVQLLESGGGEVQPGGSLRLSCVASRGKISQYRMGWYRQAPGKERELVAHISNTGDAAEYVDSVKDRFTISRDSTKNALYLQMSSLRAEDTAVYKCTSVEDILAWGQGTLVTVRP
The molecule B26 returned a Kd of 1010 nM.

B27: hu1D7v33 VHH-hIgG1 Fc-NNT (monomeric) (VHH)
VHH: EVQLLESGGGEVQPGGSLRLSCVASRGKISQYRMGWYRQAPGKELEWVAHISNTGDAAEYVDSVKDRFTISRDSTKNAVYLQMSSLRAEDTAVYKCNSVEDILAWGQGTLVTVKP
Consider B27, for which the Kd turned out to be 13 nM.

B28: hu1D7v72 VHH-hIgG1 Fc-NNT (monomeric) (VHH)
VHH: EVQLLESGGGEVQPGGSLRLSCVASRGKISQYRMGWYRQAPGKERELVAHISNTGDAAEYVDLVKDRFTISRDSTKNALYLQMSSLRAEDTAVYKCNSVEDILAWGQGTLVTVRP
Turning to B28, the Kd is 182 nM.

B29: hu1D7v71 VHH-hIgG1 Fc-NNT (monomeric) (VHH)
VHH: EVQLLESGGGEVQPGGSLRLSCVASRGKISQYRMGWYRQAPGKERELVAHISNTGDAAEYVDVVKDRFTISRDSTKNALYLQMSSLRAEDTAVYKCNSVEDILAWGQGTLVTVRP
The molecule B29 gave a dissociation constant (Kd) of 135 nM.

B30: hu1D7v65 VHH-hIgG1 Fc-NNT (monomeric) (VHH)
VHH: EVQLLESGGGEVQPGGSLRLSCVASRGKISQYRMGWYRQAPGKERELVAHISNTGDAAEYVDAVKDRFTISRDSTKNALYLQMSSLRAEDTAVYKCNSVEDILAWGQGTLVTVRP
B30 returned a Kd of 347 nM.

B31: hu1D7v60 VHH-hIgG1 Fc-NNT (monomeric) (VHH)
VHH: EVQLLESGGGEVQPGGSLRLSCVASRGKISQYRMGWYRQAPGKERELVAHISNTGDAAEYVDSVKDRFTISRDNAKNALYLQMSSLRAEDTAVYKCNSVEDILAWGQGTLVTVRP
In turn, B31 came in with a Kd of 9.67 nM.

B32: hu1D7v70 VHH-hIgG1 Fc-NNT (monomeric) (VHH)
VHH: EVQLLESGGGEVQPGGSLRLSCVASRGKISQYRMGWYRQAPGKERELVAHISNTGDAAEYVDSVKDRFTISRDSTKNALYLQMSSLRAEDTAVYKCESVEDILAWGQGTLVTVRP
In turn, B32 gave an equilibrium dissociation constant (Kd) of 441 nM.

B33: hu1D7v38 VHH-hIgG1 Fc-NNT (monomeric) (VHH)
VHH: EVQLLESGGGEVQPGGSLRLSCVASRGKISQYRMGWYRQAPGKELEWVAHISNTGDAAEYVDSVKGRFTISRDSTKNAVYLQMSSLRAEDTAVYKCNVVEDILAWGQGTLVTVKP
The molecule B33 registered an equilibrium dissociation constant (Kd) of 20200 nM.

B34: hu1D7v63 VHH-hIgG1 Fc-NNT (monomeric) (VHH)
VHH: EVQLLESGGGEVQPGGSLRLSCAASRGKISQYRMGWYRQAPGKERELVAHISNTGDAAEYVAPVKDRFTISRDNAKNALYLQMSSLRAEDTAVYKCNTVEDILAWGQGTLVTVRP
B34: the Kd came to 14.7 nM.
